For assay [1], the target named is T1, GST-SET7/9 (full length) (UniProt Q8WTS6 1-366).
T1 sequence (looked up): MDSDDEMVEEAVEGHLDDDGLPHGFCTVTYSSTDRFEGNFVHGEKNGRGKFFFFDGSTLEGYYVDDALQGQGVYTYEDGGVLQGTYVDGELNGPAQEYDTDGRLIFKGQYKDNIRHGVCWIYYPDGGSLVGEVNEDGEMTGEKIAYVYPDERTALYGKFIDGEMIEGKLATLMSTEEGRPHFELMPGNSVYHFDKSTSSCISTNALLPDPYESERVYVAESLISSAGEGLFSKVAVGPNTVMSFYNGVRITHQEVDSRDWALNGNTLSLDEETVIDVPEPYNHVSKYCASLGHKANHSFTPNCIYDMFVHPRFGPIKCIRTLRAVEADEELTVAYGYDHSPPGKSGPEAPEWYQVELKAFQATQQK
Briefly: pull-down.

For assay [2], the target named is T1, GST-SET7/9 (full length). Briefly: pull-down. The source holds these as a separate data set.

Substitutions are numbered along the chain they refer to. Names and notes keep the numbering of the source. Read-outs that look alike come from different tables or passages of the source.

B1: LIN28A carboxyl terminus (amino acids 125-209) (domain or fragment, UniProt Q9H9Z2 125-209, looked up)
chain: KGKSMQKRRSKGDRCYNCGGLDHHAKECKLPPQPKKCHFCQSISHMVASCPLKAQQGPSAQGKPTYFREEEEEIHSPTLLPEAQN
On to B1, for which the binding result in the assay with GST-SET7/9 (full length) [1] is “binds”.

B2: 6×HIS-LIN28A (full length) (natural protein, UniProt Q9H9Z2 1-209, looked up)
chain: MGSVSNQQFAGGCAKAAEEAPEEAPEDAARAADEPQLLHGAGICKWFNVRMGFGFLSMTARAGVALDPPVDVFVHQSKLHMEGFRSLKEGEAVEFTFKKSAKGLESIRVTGPGGVFCIGSERRPKGKSMQKRRSKGDRCYNCGGLDHHAKECKLPPQPKKCHFCQSISHMVASCPLKAQQGPSAQGKPTYFREEEEEIHSPTLLPEAQN
For the molecule B2, in the assay with GST-SET7/9 (full length) [2], the binding result is listed as “binds”.

B3: 6×HIS-LIN28A-K135R (full length) (natural protein, UniProt Q9H9Z2 1-209, looked up)
chain: B2 chain with K135R
B3: in the assay with GST-SET7/9 (full length) [2], the binding result is on record as “binds”.

For the origin of these results see paper PMC4258232 (Cell stem cell, 2014).
